Consider two proteins from PMC8085926.

Substrate in this data set: CCC(=O)SCCNC(=O)CCNC(=O)[C@H](O)C(C)(C)COP(=O)(O)OP(=O)(O)OC[C@H]1O[C@@H](n2cnc3c(N)ncnc32)[C@H](O)[C@@H]1OP(=O)(O)O
The data set is described as follows: purified protein. As to conditions: hydrolysis of propionyl-CoA to propionate; conditions only in supplement.

B1: HiYciA (Haemophilus influenzae Rd KW20) (protein)
chain: MSANFTDKNGRQSKGVLLLRTLAMPSDTNANGDIFGGWIMSQMDMGGAILAKEIAHGRVVTVAVESMNFIKPISVGDVVCCYGQCLKVGRSSIKIKVEVWVKKVASEPIGERYCVTDAVFTFVAVDNNGRSRTIPRENNQELEKALALISEQPL
Regarding B1, the Km (as a rule, the substrate concentration at which the rate is half of its maximum) came out at 26.84 µM; the kcat (in general, the number of substrate molecules converted per active site and unit of time at saturation) stood at 490 s⁻¹; the kcat/Km (usually the turnover number divided by the Michaelis constant) came out at 1.83e+07 M⁻¹ s⁻¹.

B2: PP_4975 (Pseudomonas putida KT2440) (protein)
chain: MNFHTRKWVKPEDLNPNGTLFGGSLLRWIDEEAAIYAIVQLGNQRVVTKYMSEINFVSASRQGDIIELGITATAFGRTSITLKCEVRNKITRKSILTVDKMVFVNLGEDGLPAAHGRTEIKYVQDQFPDSAVE
B2: the Km stood at 144.13 µM, the kcat worked out at 1300 s⁻¹ and the kcat/Km was determined as 9.02e+06 M⁻¹ s⁻¹.
